Test results as given in patent US20190077863A1 (AERPIO PHARMACEUTICALS, published 2019).
Residue numbers refer to the chain shown, from its start. Names may count otherwise.

Assays:
[1] = molecular target: T1, Human VE-PTP (HPTP-β) containing first eight FN3 repeats with C-terminal His6 tag (Human ½ VE-PTP ECD) (human, UniProt P23467 23-820); assay: ELISA: HPTP-β antigen coated on the plate, antibody serially diluted (10,000 to 9.765 ng/mL), goat anti-human HRP (Fc specific), OD 450 nm
T1 construct: Produced in HEK293 cells and purified by the His tag; it was not cut off; also called Human Beta ½ ECD
T1 sequence: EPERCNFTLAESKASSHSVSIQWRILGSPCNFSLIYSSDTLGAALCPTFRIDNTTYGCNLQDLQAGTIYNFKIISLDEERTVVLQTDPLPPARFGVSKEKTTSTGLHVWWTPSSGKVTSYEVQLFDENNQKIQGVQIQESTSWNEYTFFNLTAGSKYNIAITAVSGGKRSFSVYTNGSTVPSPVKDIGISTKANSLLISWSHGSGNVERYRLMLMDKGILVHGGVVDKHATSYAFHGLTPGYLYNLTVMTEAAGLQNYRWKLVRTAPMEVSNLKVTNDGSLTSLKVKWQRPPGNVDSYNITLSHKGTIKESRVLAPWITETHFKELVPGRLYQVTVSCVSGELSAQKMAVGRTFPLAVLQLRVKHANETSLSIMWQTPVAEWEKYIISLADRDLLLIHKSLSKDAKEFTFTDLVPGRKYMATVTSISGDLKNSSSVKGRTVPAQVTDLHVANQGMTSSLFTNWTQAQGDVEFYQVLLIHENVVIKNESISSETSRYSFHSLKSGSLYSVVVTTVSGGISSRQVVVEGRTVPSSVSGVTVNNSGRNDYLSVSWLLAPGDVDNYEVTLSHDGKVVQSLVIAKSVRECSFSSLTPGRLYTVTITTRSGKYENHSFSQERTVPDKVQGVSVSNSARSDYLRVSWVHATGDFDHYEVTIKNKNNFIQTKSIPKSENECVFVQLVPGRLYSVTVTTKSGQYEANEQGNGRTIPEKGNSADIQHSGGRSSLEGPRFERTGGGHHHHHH
Experimental: (§1) Each humanized variant was measured for affinity to the antigen, human VE-PTP (HPTP-β), using ELISA. […] of the VE-PTP (HPTP-β) antigen were immobilized onto 96-well Maxisorp plates in coating buffer (0.5 mM NaHCO₃ brought to pH 9.6 by the addition of 0.5 mM Na₂CO₃) overnight at 4° C. The coating buffer was then removed and 200 μL/well of block solution (3% w/v semi-skimmed milk powder, PBS) was added and agitated for 2 hrs at room temperature. The plate was washed four times with PBS-T (1% v/v Tween 20). 100 μL/well was added of purified R15E6 variants serially diluted from 10,000 ng/mL to 9.765 ng/mL in PBS-TB (0.05% v/v Tween 20, 0.5% w/v BSA). Following agitation for 2 hrs at room temperature, the plate was washed 4× with PBS-T. 100 μL/well goat anti-human HRP (Fc specific) at a ratio of 1:60,000 PBS was then added and the plates were incubated for an additional hour with agitation at room temperature. The plate was then washed 6× with PBS-T and once in PBS. Next, 100 μL/well of TMB substrate solution was added and incubated at 37° C. for 10 min. 50 μL 1 M HCl was added per well and the plate immediately read at 450 nm on a Tecan Sunrise plate reader. […] The binding of the HC4 variants was much lower than with the other heavy chains variants compared to HC0LC0 (FIG. 17).

[2] = molecular target: T1, Human VE-PTP (HPTP-β) containing first …; assay: ELISA, coated antigen, antibody 10,000 to 9.765 ng/mL
Experimental: as §1

[3] = molecular target: T1, Human VE-PTP (HPTP-β) containing first …; assay: ELISA: HPTP-β antigen coated on the plate, antibody serially diluted, goat anti-human HRP (Fc specific), OD 450 nm
Experimental: as §1

[4] = molecular target: T1, Human VE-PTP (HPTP-β) containing first …; assay: SPR (Biacore 3000), antibody captured on anti-human IgG, antigen as analyte 25-0 nM
Experimental: (§2) Samples of each variant were further assessed by Biacore analysis to determine the binding affinity. Antibody binding experiments were performed on Biacore 3000™ at 25° C. Assay buffer: 10 mM HEPES buffer (pH 7.4), 150 mM NaCl, 3 mM EDTA, 0.05% P20 (polyoxyethylenesorbitan). […] Conjugation buffer: 10 mM sodium acetate buffer (pH 5). The flow rate used for capturing the ligand was 5 μL/min. The flow rate for the kinetic analysis was 50 μL/min. Flow cell 1 and […] of the CM5 chip were coated with maximum amounts of goat anti-human IgG. Approximately 150 RU of the test antibody was captured on flow cell 2, 3, and 4 as indicated. The antigen was flowed over the chip. Binding of the antigen to the antibodies was monitored in real time. The KD was determined from the observed kₒₙ and koff values.

[5] = molecular target: T1, Human VE-PTP (HPTP-β) containing first …; assay: SPR (Biacore 3000), antibody captured on anti-human IgG, antigen as analyte 100 nM (single concentration)
Experimental: as §2
A scouting analysis was performed using single analyte concentrations as indicated. At these concentrations, binding can be observed even if the ligand binding is weak. Flow cell 1 response was used for reference subtraction.

B1: humanized R15E6 variant HC1LC1 (antibody, human IgG4 S228P, kappa, V domains shown)
VH: EVQLVESGGGLVQPGGSLKLSCAASGFTFNANAMNWVRQASGKGLEWVGRIRTKSNNYATYYAGSVKDRFTISRDDSKNTAYLQMNSLKTEDTAAYYCVRDYYGSSAWITYWGQGTLVTVSS
VL: DVVMTQSPSFLSASVGDRVTITCKASQHVGTAVAWYQQRPGKAPKLLIYWASTRHTGVPSRFSGSGSGTEFTLTISSLQPEDFATYFCQQYSSYPFTFGGGTKLEIKR
notes: Human IgG4 (S228P) / kappa, expressed in CHO cells; Signal peptides left out by range; also called VH1-VL1
binding result [1]: binds

B2: humanized R15E6 variant HC4LC4 (antibody, human IgG4 S228P, kappa, V domains shown)
VH: LVQLVESGGGLVKPGGSLRLSCAASGFTFNANAMNWIRQAPGKGLEWVSRIRTKSNNYATYYAGSVKDRFTISRDNAKNSLYLQMNSLRAEDTAVHYCVRDYYGSSAWITYWGQGTLVTVSS
VL: DIVMTQSPDSLAVSLGERATINCKASQHVGTAVAWYQQKPEQPPKLLIYWASTRHTGVPDRFSGSGSGTDFTLTISSLQAEDVAVYYCQQYSSYPFTFGGGTKVEIKR
notes: Human IgG4 (S228P) / kappa, expressed in CHO cells; Signal peptides left out by range; also called VH4-VL4
binding result [2]: binds

B3: humanized R15E6 variant HC3LC3 (antibody, human IgG4 S228P, kappa, V domains shown)
VH: B1 VH with G16R, K19R, A23T, S41P, T80I, A95V
VL: B1 VL with V2I, V3Q, S9F, F10S, R39K, E70D
notes: Human IgG4 (S228P) / kappa, expressed in CHO cells; Signal peptides left out by range; also called VH3-VL3
binding result [3]: binds

B4: humanized R15E6 variant HC4LC1 (antibody, human IgG4 S228P, kappa, V domains shown)
VH: B2 VH
VL: B1 VL
notes: Human IgG4 (S228P) / kappa, expressed in CHO cells; Signal peptides left out by range; also called VH4-VL1
binding result [2]: binds

B5: humanized R15E6 variant HC1LC3 (antibody, human IgG4 S228P, kappa, V domains shown)
VH: B1 VH
VL: B1 VL with V2I, V3Q, S9F, F10S, R39K, E70D
notes: Human IgG4 (S228P) / kappa, expressed in CHO cells; Signal peptides left out by range; also called VH1-VL3
binding result [1]: binds

B6: humanized R15E6 variant HC3LC1 (antibody, human IgG4 S228P, kappa, V domains shown)
VH: B1 VH with G16R, K19R, A23T, S41P, T80I, A95V
VL: B1 VL
notes: Human IgG4 (S228P) / kappa, expressed in CHO cells; Signal peptides left out by range; also called VH3-VL1
binding result [3]: binds

B7: humanized R15E6 variant HC4LC2 (antibody, human IgG4 S228P, kappa, V domains shown)
VH: B2 VH
VL: B2 VL with E41G, G100Q, V104L
notes: Human IgG4 (S228P) / kappa, expressed in CHO cells; Signal peptides left out by range; also called VH4-VL2
binding result [2]: binds

B8: humanized R15E6 variant HC3LC2 (antibody, human IgG4 S228P, kappa, V domains shown)
VH: B1 VH with G16R, K19R, A23T, S41P, T80I, A95V
VL: B2 VL with E41G, G100Q, V104L
notes: Human IgG4 (S228P) / kappa, expressed in CHO cells; Signal peptides left out by range; also called VH3-VL2
Ka [4]: 4.3e+07 M⁻¹ | Kd [4]: 23.2 nM | koff [4]: 0.00123 s⁻¹ | kon [4]: 53900 M⁻¹ s⁻¹ | Ka [5]: 2.06e+08 M⁻¹ | Kd [5]: 4.84 nM | koff [5]: 0.000993 s⁻¹ | kon [5]: 205000 M⁻¹ s⁻¹
